Assay results as given in patent publication US20200157212A1 (Pfizer, published 2020).
Changes are numbered by the printed parent chain. Values belong to the binder of their own block, whether it stands above or below them.

Biological target: T1, Human ROBO2 overexpressed on HEK293 cells (human, UniProt Q9HCK4 22-1378)
T1 construct: also called ROBO2 cells; native ROBO2
T1 sequence: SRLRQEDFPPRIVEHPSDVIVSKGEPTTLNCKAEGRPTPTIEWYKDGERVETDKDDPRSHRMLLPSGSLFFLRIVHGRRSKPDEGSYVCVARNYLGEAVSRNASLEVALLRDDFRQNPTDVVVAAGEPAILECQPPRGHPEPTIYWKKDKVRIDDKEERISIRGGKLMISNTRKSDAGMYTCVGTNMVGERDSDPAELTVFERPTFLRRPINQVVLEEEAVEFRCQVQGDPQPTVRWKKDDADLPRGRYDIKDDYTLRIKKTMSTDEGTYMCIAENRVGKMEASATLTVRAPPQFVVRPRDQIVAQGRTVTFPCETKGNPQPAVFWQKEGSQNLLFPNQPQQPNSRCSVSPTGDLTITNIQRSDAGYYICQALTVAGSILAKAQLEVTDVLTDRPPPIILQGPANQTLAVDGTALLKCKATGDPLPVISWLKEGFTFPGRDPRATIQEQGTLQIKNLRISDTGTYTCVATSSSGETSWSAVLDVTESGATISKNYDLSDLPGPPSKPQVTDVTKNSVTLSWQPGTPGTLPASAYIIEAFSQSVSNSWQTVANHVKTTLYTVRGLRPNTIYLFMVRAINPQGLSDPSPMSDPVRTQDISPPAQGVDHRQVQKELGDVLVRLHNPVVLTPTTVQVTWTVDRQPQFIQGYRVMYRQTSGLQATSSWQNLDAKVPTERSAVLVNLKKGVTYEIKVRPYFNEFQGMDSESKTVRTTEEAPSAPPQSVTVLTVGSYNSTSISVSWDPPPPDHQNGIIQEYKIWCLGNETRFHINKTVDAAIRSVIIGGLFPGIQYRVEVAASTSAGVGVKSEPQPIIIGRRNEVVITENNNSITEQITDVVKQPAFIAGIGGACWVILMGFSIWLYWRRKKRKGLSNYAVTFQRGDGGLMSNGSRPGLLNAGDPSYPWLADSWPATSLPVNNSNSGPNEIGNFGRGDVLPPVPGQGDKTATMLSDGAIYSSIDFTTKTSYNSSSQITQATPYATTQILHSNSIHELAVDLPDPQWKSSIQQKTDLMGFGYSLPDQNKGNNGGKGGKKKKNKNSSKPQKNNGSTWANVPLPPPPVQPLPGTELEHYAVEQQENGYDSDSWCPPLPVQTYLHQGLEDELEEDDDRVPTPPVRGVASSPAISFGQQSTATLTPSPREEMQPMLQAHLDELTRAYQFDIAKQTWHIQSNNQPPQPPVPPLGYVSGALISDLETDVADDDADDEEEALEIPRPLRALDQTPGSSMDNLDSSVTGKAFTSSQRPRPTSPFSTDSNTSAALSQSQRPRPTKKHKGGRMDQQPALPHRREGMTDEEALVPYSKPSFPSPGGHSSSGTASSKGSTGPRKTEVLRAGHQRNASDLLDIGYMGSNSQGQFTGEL
Test: flow cytometry, HEK293 cells
Experimental: Using flow cytometry, improvement in the binding EC₅₀ to human ROBO2 relative to the parental 93H2 was evaluated. Starting at 6.7 nM, 11-point, 3-fold dilution series were made for each antibody and used to stain HEK293 overexpressing human ROBO2 as described above for the ROBO2 fold selectivity (Example 2). […] In addition to measuring improved binding to human ROBO2, it was important to ensure that high affinity binding to both cynomolgus monkey ROBO2 and rat ROBO2 was maintained. Using HEK293 cells overexpressing either cynomolgus monkey ROBO2 or rat ROBO2, the relative dose-dependent binding of 93H2, Abcs25 and Abcs35 was evaluated as described above. High affinity binding to both cynomolgus monkey and rat ROBO2 was maintained in Abcs25 and Abcs35 (Table 4). […] Briefly, Abcs35 was immobilized to 300 resonance units (RU) on a CM5 chip. Association of ROBO2 Ig1-Ig2-His (ROBO2) was measured over 5 minutes and dissociation was followed for a period of 10 minutes.
The binding profile of Abcs35-J compared to Abcs35 was determined for human ROBO2, orthologs from cynomolgus monkey and rat, human ROBO1 and specificity for the RSK epitope from ROBO2 but not KSR from ROBO1. Binding was assessed by flow cytometry as described in Examples 2 (homolog specificity), Example 3 (ortholog reactivity) and Example 5 (RSK vs KSR epitope specificity). […] Binding of the antibodies was detected using a secondary fluorochrome conjugated anti-human IgG F(ab′)₂ antibody and samples analyzed on a Fortessa cytometer (BD Biosciences).

B1: Abcs35 (antibody, human IgG1, kappa)
heavy: EVQLVQSGAEVKKPGASVKVSCKASGYTFTGYYMHWVRQAPGQGLEWMGWINPKNGDTEFPQKFQGRVTMTRDTSITTAYMDLSRLRSDDTAVYYCARESGDDAFDIWGQGTMVTVSSASTKGPSVFPLAPSSKSTSGGTAALGCLVKDYFPEPVTVSWNSGALTSGVHTFPAVLQSSGLYSLSSVVTVPSSSLGTQTYICNVNHKPSNTKVDKKVEPKSCDKTHTCPPCPAPEAAGAPSVFLFPPKPKDTLMISRTPEVTCVVVDVSHEDPEVKFNWYVDGVEVHNAKTKPREEQYNSTYRVVSVLTVLHQDWLNGKEYKCKVSNKALPAPIEKTISKAKGQPREPQVYTLPPSREEMTKNQVSLTCLVKGFYPSDIAVEWESNGQPENNYKTTPPVLDSDGSFFLYSKLTVDKSRWQQGNVFSCSVMHEALHNHYTQKSLSLSPGK
light: DIVMTQSPSSLSASVGDRVTITCRASQSISSYLNWYQQKPGKAPKLLIYAASSLQSGVPSRFSGSGSGTDFTLTISSLQPEDFATYYCQQSVGLFFGGGTKVEIKRTVAAPSVFIFPPSDEQLKSGTASVVCLLNNFYPREAKVQWKVDNALQSGNSQESVTEQDSKDSTYSLSSTLTLSKADYEKHKVYACEVTHQGLSSPVTKSFNRGEC
notes: fully human IgG1; VH of Ab96 with VL of Ab123
EC50: 0.089 nM

EC50: 0.102 nM
B2: Abcs35-J (antibody, human IgG1, kappa)
heavy: B1 heavy with D82E
light: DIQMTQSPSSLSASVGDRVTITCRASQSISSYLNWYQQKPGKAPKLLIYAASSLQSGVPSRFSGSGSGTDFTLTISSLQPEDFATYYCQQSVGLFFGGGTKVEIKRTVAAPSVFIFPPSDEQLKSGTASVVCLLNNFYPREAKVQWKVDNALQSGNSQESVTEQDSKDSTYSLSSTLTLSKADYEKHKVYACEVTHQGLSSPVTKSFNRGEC
notes: germlined variant of Abcs35; also called ABCS-J
